Experimental data: article PMC3032424

Molecular target: mouse hemoglobin (mouse) (UniProt P01942)
Assay: BLI

Q: For “recombinant IsdB (from UniProt A6QG30 41-613) (receptor)”, which Kd is on record?
A: 980 nM
